Experimental data: patent US20110263827A1 (AbbVie / Abbott, published 2011)

B1: DVD776 (bispecific antibody)
VH: EVQLLESGGGLVQPGGSLRLSCTASGFTFSSYAMNWVRQAPGKGLEWVSAISGSGGTTFYADSVKGRFTISRDNSRTTLYLQMNSLRAEDTAVYYCAKDLGWSDSYYYYYGMDVWGQGTTVTVSSASTKGPSVFPLAPQVQLQESGPGLVKPSQTLSLTCTVSGYSISSDFAWNWIRQPPGKGLEWMGYISYSGNTRYQPSLKSRITISRDTSKNQFFLKLNSVTAADTATYYCVTAGRGFPYWGQGTLVTVSS
VL: DIQMTQFPSSLSASVGDRVTITCRASQGIRNDLGWYQQKPGKAPKRLIYAASRLHRGVPSRFSGSGSGTEFTLTISSLQPEDFATYYCLQHNSYPCSFGQGTKLEIKRTVAAPSVFIFPPDIQMTQSPSSMSVSVGDRVTITCHSSQDINSNIGWLQQKPGKSFKGLIYHGTNLDDGVPSRFSGSGSGTDYTLTISSLQPEDFATYYCVQYAQFPWTFGGGTKLEIKR
notes: DVD-Ig; HC L, LC L; variable parts only
B2: DVD806 (bispecific antibody)
VH: B1 VH
VL: DIQMTQFPSSLSASVGDRVTITCRASQGIRNDLGWYQQKPGKAPKRLIYAASRLHRGVPSRFSGSGSGTEFTLTISSLQPEDFATYYCLQHNSYPCSFGQGTKLEIKRTVAAPDIQMTQSPSSMSVSVGDRVTITCHSSQDINSNIGWLQQKPGKSFKGLIYHGTNLDDGVPSRFSGSGSGTDYTLTISSLQPEDFATYYCVQYAQFPWTFGGGTKLEIKR
notes: DVD-Ig; HC L, LC S; variable parts only
B3: DVD836 (bispecific antibody)
VH: EVQLLESGGGLVQPGGSLRLSCTASGFTFSSYAMNWVRQAPGKGLEWVSAISGSGGTTFYADSVKGRFTISRDNSRTTLYLQMNSLRAEDTAVYYCAKDLGWSDSYYYYYGMDVWGQGTTVTVSSASTKGPQVQLQESGPGLVKPSQTLSLTCTVSGYSISSDFAWNWIRQPPGKGLEWMGYISYSGNTRYQPSLKSRITISRDTSKNQFFLKLNSVTAADTATYYCVTAGRGFPYWGQGTLVTVSS
VL: B1 VL
notes: DVD-Ig; HC S, LC L; variable parts only
B4: DVD334 (bispecific antibody)
VH: B3 VH
VL: B2 VL
notes: DVD-Ig; HC S, LC S; variable parts only
B5: DVD777 (bispecific antibody)
VH: QVQLQESGPGLVKPSQTLSLTCTVSGYSISSDFAWNWIRQPPGKGLEWMGYISYSGNTRYQPSLKSRITISRDTSKNQFFLKLNSVTAADTATYYCVTAGRGFPYWGQGTLVTVSSASTKGPSVFPLAPQVQLVESGGGLVKPGGSLRLSCAASGFTFSDYYMSWIRQAPGKGLEWVSYISSSGSTIYYADSVKGRFTISRDNAKNSLYLQMNSLRAEDTAVYYCARDEYNSGWYVLFDYWGQGTLVTVSS
VL: DIQMTQSPSSMSVSVGDRVTITCHSSQDINSNIGWLQQKPGKSFKGLIYHGTNLDDGVPSRFSGSGSGTDYTLTISSLQPEDFATYYCVQYAQFPWTFGGGTKLEIKRTVAAPSVFIFPPDIQMTQSPSSVSASVGDRVTITCRASQGISSWLAWYQQKPGKAPNLLIYEASSLQSGVPSRFGGSGSGTDFTLTISSLQPEDFATYYCQQANGFPWTFGQGTKVEIKR
notes: as for B1
B6: DVD807 (bispecific antibody)
VH: B5 VH
VL: DIQMTQSPSSMSVSVGDRVTITCHSSQDINSNIGWLQQKPGKSFKGLIYHGTNLDDGVPSRFSGSGSGTDYTLTISSLQPEDFATYYCVQYAQFPWTFGGGTKLEIKRTVAAPDIQMTQSPSSVSASVGDRVTITCRASQGISSWLAWYQQKPGKAPNLLIYEASSLQSGVPSRFGGSGSGTDFTLTISSLQPEDFATYYCQQANGFPWTFGQGTKVEIKR
notes: as for B2
B7: DVD837 (bispecific antibody)
VH: QVQLQESGPGLVKPSQTLSLTCTVSGYSISSDFAWNWIRQPPGKGLEWMGYISYSGNTRYQPSLKSRITISRDTSKNQFFLKLNSVTAADTATYYCVTAGRGFPYWGQGTLVTVSSASTKGPQVQLVESGGGLVKPGGSLRLSCAASGFTFSDYYMSWIRQAPGKGLEWVSYISSSGSTIYYADSVKGRFTISRDNAKNSLYLQMNSLRAEDTAVYYCARDEYNSGWYVLFDYWGQGTLVTVSS
VL: B5 VL
notes: as for B3
B8: DVD835 (bispecific antibody)
VH: QVQLQESGPGLVKPSQTLSLTCTVSGYSISSDFAWNWIRQPPGKGLEWMGYISYSGNTRYQPSLKSRITISRDTSKNQFFLKLNSVTAADTATYYCVTAGRGFPYWGQGTLVTVSSASTKGPEVQLLESGGGLVQPGGSLRLSCTASGFTFSSYAMNWVRQAPGKGLEWVSAISGSGGTTFYADSVKGRFTISRDNSRTTLYLQMNSLRAEDTAVYYCAKDLGWSDSYYYYYGMDVWGQGTTVTVSS
VL: DIQMTQSPSSMSVSVGDRVTITCHSSQDINSNIGWLQQKPGKSFKGLIYHGTNLDDGVPSRFSGSGSGTDYTLTISSLQPEDFATYYCVQYAQFPWTFGGGTKLEIKRTVAAPSVFIFPPDIQMTQFPSSLSASVGDRVTITCRASQGIRNDLGWYQQKPGKAPKRLIYAASRLHRGVPSRFSGSGSGTEFTLTISSLQPEDFATYYCLQHNSYPCSFGQGTKLEIKR
notes: as for B3
B9: DVD333 (bispecific antibody)
VH: B8 VH
VL: DIQMTQSPSSMSVSVGDRVTITCHSSQDINSNIGWLQQKPGKSFKGLIYHGTNLDDGVPSRFSGSGSGTDYTLTISSLQPEDFATYYCVQYAQFPWTFGGGTKLEIKRTVAAPDIQMTQFPSSLSASVGDRVTITCRASQGIRNDLGWYQQKPGKAPKRLIYAASRLHRGVPSRFSGSGSGTEFTLTISSLQPEDFATYYCLQHNSYPCSFGQGTKLEIKR
notes: as for B4
B10: DVD335 (bispecific antibody)
VH: B7 VH
VL: B6 VL
notes: as for B4

Biological target: T1, IGF1R (UniProt P08069 31-932, limits assumed, biotinylated)
T1 construct: ELISA antigen
Test: direct bind ELISA, N-term VD;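 note: antibody or DVD-Ig preparations bound to immobilized target antigen on ELISA plates, 1 h at room temperature, TMB detection read as absorbance at 450 nm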

EC50 [nM]	Binder
0.83	B1
0.4	B2
0.51	B3
0.19	B4

Biological target: T2, EGFR (UniProt P00533 25-645, limits assumed, biotinylated)
T2 construct: ELISA antigen; construct not described
Test: direct bind ELISA, N-term VD;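 note: antibody or DVD-Ig preparations bound to immobilized target antigen on ELISA plates, 1 h at room temperature, TMB detection read as absorbance at 450 nm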

EC50 [nM]	Binder
5.13	B5
4.85	B6
4.51	B7
2.42	B8
3.55	B9
3.77	B10

Biological target: T1, IGF1R
Test: direct bind ELISA, C-term VD;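 note: ELISA with antibody or DVD-Ig preparations applied to target antigen-coated plates for 1 h at room temperature, TMB colour development, absorbance read at 450 nm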

EC50 [nM]	Binder
3.47	B8
78.6	B9

Biological target: T3, HGF (UniProt P14210 32-728, limits assumed, biotinylated)
T3 construct: ELISA antigen
Test: direct bind ELISA, C-term VD;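 note: ELISA with antibody or DVD-Ig preparations applied to target antigen-coated plates for 1 h at room temperature, TMB colour development, absorbance read at 450 nm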

EC50 [nM]	Binder
0.96	B5
9.24	B6
1.29	B7
159	B10

Biological target: T2, EGFR
Test: direct bind ELISA, C-term VD;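 note: ELISA with antibody or DVD-Ig preparations applied to target antigen-coated plates for 1 h at room temperature, TMB colour development, absorbance read at 450 nm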

EC50 [nM]	Binder
286	B1
53.8	B2
56.8	B3
137	B4
